Assays:
[1] = molecular target: WW1 domain of human YAP2 (residues 171-205) (human) (UniProt P46937); experiment: ITC
[2] = molecular target: WW2 domain of human YAP2 (residues 230-264) (human) (UniProt P46937); experiment: ITC
Chain of WW2 domain of human YAP2 (residues 230-264) (human) (P46937 230-264): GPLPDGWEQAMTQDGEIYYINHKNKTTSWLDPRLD

Chain of WW1 domain of human YAP2 (residues 171-205) (human) (P46937 171-205): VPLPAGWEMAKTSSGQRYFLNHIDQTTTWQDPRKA

| Kd [1] | dH [1] | Kd [2] | dH [2] | Substance |
| --- | --- | --- | --- | --- |
| 15 µM | -14.6 kcal/mol | 46 µM | -14.6 kcal/mol | ErbB4_PY3 peptide, alanine mutant PY3_A+5 |
| 113 µM | -6.14 kcal/mol |  | -3.9 kcal/mol | ErbB4_PY1 peptide (12-mer with the PY1 PPXY motif of the ICD of human ErbB4) |
| 84 µM | -2.94 kcal/mol | 116 µM | -4.23 kcal/mol | ErbB4_PY2 peptide (12-mer with the PY2 PPXY motif of the ICD of human ErbB4) |
| 53 µM | -9.8 kcal/mol |  | -8.61 kcal/mol | ErbB4_PY3 peptide, alanine mutant PY3_A+4 |
| 70 µM | -15.9 kcal/mol | 110 µM | -10.7 kcal/mol | ErbB4_PY3 peptide, alanine mutant PY3_A-1 |
| 36 µM | -10.3 kcal/mol | 85 µM | -9.06 kcal/mol | ErbB4_PY3 peptide, alanine mutant PY3_A+6 |
| 31 µM | -13.3 kcal/mol | 56 µM | -7.72 kcal/mol | ErbB4_PY3 peptide, wildtype (12-mer with the PY3 PPXY motif of the ICD of human ErbB4) |
| 46 µM | -16.9 kcal/mol | 62 µM | -10.3 kcal/mol | ErbB4_PY3 peptide, alanine mutant PY3_A-3 |
| 45 µM | -16.1 kcal/mol | 83 µM | -13.1 kcal/mol | ErbB4_PY3 peptide, alanine mutant PY3_A-2 |
|  | -12.7 kcal/mol | 126 µM | -10.1 kcal/mol | ErbB4_PY3 peptide, alanine mutant PY3_A+2 |
